From patent US8871909B2, “Antibodies inhibiting c-Met dimerization and uses thereof” (Pierre Fabre Medicament, priority 2007, dated 2014)
One block for each molecule: values may come before it.

Legend:
[1] = system: NCI-H441; assay: In vivo combination of 224G11 and Navelbine on NCI-H441 xenograft model (Example 19); set-up: species or system Athymic nude mice; conditions: day 41 post first injection
Method: NCI-H441 cells from ATCC were routinely cultured in RPMI 1640 medium, 10% FCS, 1% L-Glutamine. Cells were split two days before engraftment being in exponential phase of growth. Ten million NCI-H441 cells were engrafted to Athymic nude mice. […] Mice were treated i.p. either with a loading dose of 2 mg of 224G11 Mab/mouse and then twice a week with 1 mg of antibody/mouse until Day 38 or with 3 injections of Navelbine® (D5, D12, D19) at 8 mg/kg. A third group administered with the combine treatment was also included. Navelbine® was given by i.p. injections. Tumor volume was measured twice a week and calculated by the formula: π/6×length×width×height and animal weights were monitored every day over the period of Navelbine® treatment. Statistical analysis was performed at each measured time using either a t-test or a Mann-Whitney test. […] Results are represented in FIG. 45.

[2] = system: MDA-MB-231; assay: MDA-MB-231 cells co-implanted with MRC5 cells xenograft; format: in vivo, Athymic nude mice; conditions: 2 mg loading dose then 1 mg twice a week i.p.
Method: […] and MRC5 cells from ATCC were both cultured in DMEM medium, 10% FCS, 1% L-Glutamine. Cells were split two days before engraftment being in exponential phase of growth. Five million MDA-MB-231 cells and 500 000 MRC5 cells were co-injected s.c. to Athymic nude mice. […] Mice were treated i.p. either with a loading dose of 2 mg of 224G11 Mab/mouse and then twice a week with 1 mg of antibody/mouse. Tumor volume was measured twice a week and calculated by the formula: π/6×length×width×height.

[3] = molecular target: T1, c-Met-Fc-Tag His (Homo sapiens, UniProt P08581); assay: BIAcore epitope mapping on captured c-Met-Fc; format: binding
T1 construct: c-Met extracellular domain fusion protein (10-15 g/dose/mouse) (R&D Systems, Catalog #358MT); purchased R&D systems 358-MT-CF
Excerpt: A couple of antibodies unable to bind at the same time on the antigen molecule are classified in the same group (identical or neighbouring binding sites). At the opposite when their respective binding sites are sufficiently distant to allow a simultaneous binding of both antibodies these later are classified into two different groups. In such experiments, the antigen is commonly used as the ligand (immobilized on the sensorchip) and the antibodies are used without any labelling as analytes (solution phase).
All the experiments described have been done on a BIAcore X instrument (GE Healthcare Europe GmbH). A CM5 sensorchip (BIAcore) activated by a mouse anti-Tag-6His Mab (R&D System ref. MAB050) has been prepared following the manufacturer instructions by using the amine coupling kit (BIAcore). The running buffer (HBS-EP) and regeneration buffer (Glycine, HCl) are from BIAcore. A recombinant soluble version of the human HGF receptor produced as a chimeric molecule c-Met-Fc-Tag His was from R&D systems (ref. 358-MT-CF). […]
The ability of an antibody “A” to block the binding of an antibody “B” is calculated by the ratio BIA/C=(R2A/B/R1B)×100: where R2A/B is the response corresponding to the binding of the MAb “B” when it was injected after Mab “A” and R1B is the response corresponding to the binding of the MAb “B” when it was injected first. […]

[4] = system: NCI-H441 cells; assay: Wound healing (migration) assay with NCI-H441 cells; format: cell-based
Method: HGF stimulates motility. To determine whether the anti-HGF antibodies were able to inhibit migration, NCI-H441 cells were grown to high density and a gap was introduced with a P200 pipette tip. Cells were then stimulate to migrate across the gap with HGF (100 ng/ml) in presence or in absence of 11E1. Wells with 11E1 alone were also evaluated. Each tested condition was evaluated as a sextuplicate and 3 independent experiments were performed. After an overnight incubation, cells were visualized with an Axio Vision Camera (objective ×4).

T1 sequence (P08581 25-932 limits assumed): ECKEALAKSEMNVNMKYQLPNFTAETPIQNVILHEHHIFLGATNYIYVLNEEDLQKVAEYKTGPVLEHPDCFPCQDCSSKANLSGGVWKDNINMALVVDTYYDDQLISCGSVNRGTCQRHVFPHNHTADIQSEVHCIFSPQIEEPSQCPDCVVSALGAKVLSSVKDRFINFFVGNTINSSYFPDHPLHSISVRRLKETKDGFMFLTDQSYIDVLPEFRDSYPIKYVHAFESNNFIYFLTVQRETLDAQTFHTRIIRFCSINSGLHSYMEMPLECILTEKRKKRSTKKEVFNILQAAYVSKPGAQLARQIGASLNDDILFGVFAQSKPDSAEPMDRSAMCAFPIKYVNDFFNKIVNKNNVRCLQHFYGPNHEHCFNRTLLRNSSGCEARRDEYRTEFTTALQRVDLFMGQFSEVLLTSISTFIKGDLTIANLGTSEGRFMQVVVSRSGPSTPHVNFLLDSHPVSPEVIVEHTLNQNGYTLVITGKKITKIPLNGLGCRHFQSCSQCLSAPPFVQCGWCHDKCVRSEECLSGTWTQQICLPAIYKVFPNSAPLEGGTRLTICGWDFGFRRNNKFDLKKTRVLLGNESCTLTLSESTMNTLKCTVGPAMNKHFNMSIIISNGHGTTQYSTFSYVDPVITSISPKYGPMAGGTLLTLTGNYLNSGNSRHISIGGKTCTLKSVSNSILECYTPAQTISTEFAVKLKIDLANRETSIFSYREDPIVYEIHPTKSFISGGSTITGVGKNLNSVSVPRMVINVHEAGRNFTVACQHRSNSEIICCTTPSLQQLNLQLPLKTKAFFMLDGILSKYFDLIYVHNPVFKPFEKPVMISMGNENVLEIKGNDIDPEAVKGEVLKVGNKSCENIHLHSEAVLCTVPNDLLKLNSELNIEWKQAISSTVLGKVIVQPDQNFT

B1: 224G11: murine anti-c-Met monoclonal antibody, IgG1 kappa; heavy chain SEQ ID No. 18, light chain SEQ ID No. 21 (antibody, V domains shown)
VH: EVQLQQSGPELVKPGASVKISCKTSGYIFTAYTMHWVRQSLGESLDWIGGIKPNNGLANYNQKFKGKATLTVDKSSSTAYMDLRSLTSEDSAVYYCARSEITTEFDYWGQGTALTVSS
VL: DIVLTQSPASLAVSLGQRATISCRASESVDSYANSFMHWYQQKPGQPPKLLIYRASNLESGIPARFSGSGSRTDFTLTINPVEADDVATYYCQQSKEDPLTFGSGTKLEMK
modifications: mus musculus
reduction of average tumor volume [1]: 72% | median tumors growth compared to the control group [2]: significant difference in median tumors growth

BIA/C ratio, 2nd Ab (B) 5D5 ([3]; listed as antibody injected first (A), 5D5 second, 10 μg/ml, below 20% = blocks): 84.2% | epitope mapping, binding sites ([3]; sequential injections of 5D5 and 11E1 on captured c-Met-Fc): bind clearly to two distant sites
B2: 11E1: murine anti-c-Met monoclonal antibody, IgG1 kappa; heavy chain SEQ ID No. 62, light chain SEQ ID No. 63 (antibody, V domains shown)
VH: QVQLQQSGAELAKPGASVKMSCKASGYTFTSYWMNWVKQRPGQGLEWIGYINPTTGSTDYNQKLKDKATLTADKSSNTAYMQLSSLTSEDSAVYYCAIGGYGSWFAYWGQGTLVTVSA
VL: QIVLTQSPAIMSASPGEKVTLTCSASSSVSSTYLYWYQQKPGSSPKLWIYTTSILASGVPARFSGSGSGTSYSLTISSMETEDAASYFCHQWSSYPFTFGSGTKLDIK
modifications: mus musculus
effect on cell migration in presence of HGF ([4]; NCI-H441, HGF 100 ng/ml): full antagonist | agonist effect on cell migration, added alone ([4]; NCI-H441, no HGF): no agonist effect
